Biological target: HB36.4 I58E displayed on the yeast surface
Test: flow cytometry on cells

Substance: A/Vietnam/1203/2004 (H5N1) hemagglutinin, biotinylated (natural protein)
- net change in specificity (H1 over H5) against HB36.4: > 30 fold

Reference: paper PMC3638900
